Publication PMC10399232

Biological target: eIF4E (mouse (endogenous in cerebellum)) (UniProt P63073)
Experiment: pull-down; m7GTP beads (30 ul) incubated with 500 ug mouse cerebellar lysate for 1 h at 4 C; lysis buffer 150 mM NaCl, 10 mM MgCl2, 30 mM tris pH 8.0, 1 mM DTT, 1.5% Triton X-100; washed three times in 100 mM KCl, 50 mM tris pH 7.4, 5 mM MgCl2, 0.5% Triton X-100; eIF4E and eIF4G blotted; eIF4G/eIF4E ratio normalized to the WT mean; CYFIP1 OE and WT mice

Chain of UniProt P63073 (P63073 whole entry): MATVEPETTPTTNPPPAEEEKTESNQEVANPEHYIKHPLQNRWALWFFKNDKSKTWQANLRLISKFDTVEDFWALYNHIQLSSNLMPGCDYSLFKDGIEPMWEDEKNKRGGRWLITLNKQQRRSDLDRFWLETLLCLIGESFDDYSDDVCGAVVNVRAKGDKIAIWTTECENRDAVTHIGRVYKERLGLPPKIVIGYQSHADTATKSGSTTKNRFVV

- eIF4G/eIF4E binding ratio in CYFIP1 OE mice, normalized to WT mean (fold of WT mean): 1.68
Substance: eIF4G (natural protein)
